In this series the test system is Bacillus subtilis. The experiment in a line: cleaved RNA product abundance (RNA/gDNA barcode ratio) relative to median wild-type variant (ratio to wild type); higher = more accumulation of the downstream cleavage product. In outline:
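Reporter mRNAs (truncated aprE or tetM) carrying barcoded, mutagenized RNase Y cleavage-site windows were made from oligos with a 9% error rate and integrated into the B. subtilis chromosome. Cultures grew in LB at 37°C from OD600 0.0003 to 0.3. Cleaved RNA was gel-selected, reverse transcribed and barcode-sequenced alongside genomic DNA barcodes, with UMI collapsing. Cleaved product abundance is the RNA:gDNA barcode ratio per variant, scaled to the median wild-type variant.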

Where [1] appears, read: experiment (reporter, strain, medium): exp 8a: truncated aprE reporter, strain BJT201 with 2% xylose (RNase J1 expressed), cleavage site: glnRA (positions -5 to +31 mutated).
The mark [2] stands for this setting: experiment (reporter, strain, medium): exp 2b: truncated aprE reporter, strain BJT200, cleavage site: cggR-gapA (positions -7 to +36 mutated).
Where [3] appears, read: experiment (reporter, strain, medium): exp 4a: truncated aprE reporter, strain BJT201 with 2% xylose (RNase J1 expressed), cleavage site: cggR-gapA (positions -7 to +36 mutated).

For the sequence “CGACATGTCCCGCTTCTTTCATTAATCCGTTTGCAACTGTTTTGCTATATACATATACCTTTTAAGAGGAGGAAT”, the “cleaved RNA product abundance” value under setting [1] was 0.478.

Take “CGACATGTCCCGCTTCTTTCATTAATCCGTAAGCAACTGTTTTGCTATGTACATTTACCTTTTAAGAGGAGGAAT”: the “cleaved RNA product abundance” value under setting [1] came to 0.0895.

For the sequence “ACAGACGAAGGAGCCGCAAAGAAGTTATTAAGAGATGAATAATCCCTCAAAATAAATATCTCTCACTTATTTAAA”, the “cleaved RNA product abundance” value under setting [2] worked out at 0.101 and the “cleaved RNA product abundance” value under setting [3] was found to be 0.106.

With “ACAGACGAAGGAGCCGCAAAGAAGTTATTAAGGGATGAATAATCACTCAATATAATTATCTCTCACTTATTTAAA”, the “cleaved RNA product abundance” value under setting [3] was 0.0768.

Consider “ACAGACGAAGGAGCCGCAAAGAAGTTATTAAGGGATGAATAATCCCTCAATATAAACATTTCTCACTTATTTAAA”, for which the “cleaved RNA product abundance” value under setting [2] came to 0.752.

Turning to “ACAGACGAAGGAGCCGCAAAGAAGTTATTAATGGATGAATAATCCCTCGATATAAATATCTCTCACTTATTTAAA”, the “cleaved RNA product abundance” value was 0.0785 under setting [2] and 0.116 under setting [3].

As to “CGACATGTCCCGCTTCTTTCATTAATCCGTTAGCAACTGTTTTGCTATATACATATATCTTTTAAGAGGAGGAAT”, the “cleaved RNA product abundance” value under setting [1] came out at 1.06.

Consider “ACAGACGAAGGAGCCGCAAAGAAGTTATTAAGGGATCATTAATCCCTCAATATAAATATCTCTCACTTATTTAAA”, for which the “cleaved RNA product abundance” value under setting [3] turned out to be 1.08.

For the sequence “ACAGACGAAGGAGCCGCAAAGAAGTTATTAAAGGATGAATAATCCCTCAATATAAATATATCTCACTTATTTAAA”, the “cleaved RNA product abundance” value under setting [3] came to 0.259.

With “ACAGACGAAGGAGCCGCAAAGAATTTATTAAGGGATGAATAATCACTCAATATAAATATCTCTCACTTATTTAAA”, the “cleaved RNA product abundance” value was 0.134 under setting [2] and 0.119 under setting [3].

With “ACAGACGAAGGAGCCGCAAAGAATTTATTTAGGAATGAATAATCCCTCAATATAAATATCTCTCACTTATTTAAA”, under setting [3], the “cleaved RNA product abundance” value was 0.0547.

Turning to “ACAGACGAAGGAGCCGCAAAGAAGTTATTAATGGATGAATAATCCATCAATATAAATATCTCTCACTTATTTAAA”, the “cleaved RNA product abundance” value is, setting by setting: under setting [2], 0.667; under setting [3], 1.21.

With “CGACATGTCCCGCTTCTTTCATTAATCAGTTAGCAACTGTTTTGCTATATACTTTTACCTTTTAAGAGGAGGAAT”, under setting [1], the “cleaved RNA product abundance” value came out at 0.343.

As for “ACAGACGAAGGAGCCGCAAAGAAGTTATTAAGGGATGTATAATCCCTGAATATAAATATCTCTCACTTATTTAAA”, the “cleaved RNA product abundance” value under setting [3] amounted to 0.461.

As to “CGACATGTCCCGCTTCTTTCATTAATCCGTTAGCAACTGTTTTGCTATATAAATTTATCTTTTAAGAGGAGGAAT”, under setting [1], the “cleaved RNA product abundance” value was 2.04.

Take “CGACATGTCCCGCTTCTTTCATTAACCCGTTAGTAACTGTTTTGCTATATACATTTACCTTTTAAGAGGAGGAAT”: under setting [1], the “cleaved RNA product abundance” value is 0.255.

Regarding “CGACATGTCCCGCTTCTTTCATTATTCCGTTAGCAACTGTTTTGCTCTATACATTTACCTTTTAAGAGGAGGAAT”, the “cleaved RNA product abundance” value under setting [1] turned out to be 0.354.

For “CGACATGTCCCGCTTCTTTCATTAATCAGTTAGCAACTTTTTTGCTATATACATTTACCTTTTAAGAGGAGGAAT”, under setting [1], the “cleaved RNA product abundance” value stood at 1.18.

For “ACAGACGAAGGAGCCGCAAGGAAGTTATTAAGGGATGAATAATCCCTCAATATACATATCTCTCACTTATTTAAA”, under setting [3], the “cleaved RNA product abundance” value was 0.774.

Regarding “CGACATGTCCCGCTTCTTTCATTAATCCTTTAGCAACTGTCTTGCTATATACATTTACCTTTTAAGAGGAGGAAT”, under setting [1], the “cleaved RNA product abundance” value amounted to 0.661.

As for “ACAGACGAAGGAGCCGCAAAGAAGTTATTAAGGGATGAATAATCCATAAATATAAATATCTCTCACTTATTTAAA”, the “cleaved RNA product abundance” value under setting [2] was determined as 0.17 and the “cleaved RNA product abundance” value under setting [3] stood at 0.261.

In the case of “ACAGACGAAGGAGCCGCATAGAACTTATTAAGGGATGAATAATCCCTCAATATAAATATCTCTCACTTATTTAAA”, the “cleaved RNA product abundance” value was determined as 0.341 under setting [2] and 0.499 under setting [3].

“ACAGACGAAGGAGCCGCAAAGAAGTCATTAAGGGATGAATAATCGCTCAATATAAATATCTCTCACTTATTTAAA”: the “cleaved RNA product abundance” value under setting [3] turned out to be 0.107.

As to “ACAGACGAAGGAGCCGCAAAGAAGTTATTAAGGGATGAATAATCCCTAAATATAAATATCTCTCACTATTTAAAG”, under setting [3], the “cleaved RNA product abundance” value came to 0.705.

On to “ACAGACGAAGGAGCCGCAATGAAGTTATTAACGGATGAATAATCCCTCAATATAAATATCTCTCACTTATTTAAA”, for which the “cleaved RNA product abundance” value under setting [3] was found to be 0.145.

For “ACAGACGAAGGAGCCGCAAAGAAGTTATTAAAGGATTAATAATCCCTCAATATAAATATCTCTCACTTATTTAAA”, the “cleaved RNA product abundance” value by setting is: under setting [2], 0.154; under setting [3], 0.205.

For “ACAGACGAAGGAGCCGCAAAGAAGTTATTAAGGGATGAATAATACCTCAATATAAATATCTCTCACTTATTAAAG”, the “cleaved RNA product abundance” value under setting [3] was 0.148.

Consider “ACAGACGAAGGAGCCGCAAATAAGTTATTAAGGGAGGAATAATCCCTCAATATAAATATCTCTCACTTATTTAAA”, for which the “cleaved RNA product abundance” value under setting [2] was found to be 0.554 and the “cleaved RNA product abundance” value under setting [3] turned out to be 0.469.

Take “ACAGACGAAGGAGCCGCAAAGAACTTATTAAGGGATGAATAATCCTTCAATATAAATATCTCTCACTTATTTAAA”: under setting [3], the “cleaved RNA product abundance” value worked out at 0.342.

For “ACAGACGAAGGAGCCGCAAAGAAGTTATTAAGGGATCAATAATCCCTCAACATAAATATCTCTCACTTATTTAAA”, the “cleaved RNA product abundance” value under setting [3] amounted to 0.258.

As for “ACAGACGAAGGAGCCGCAAAGAAGTTATTAAGAGATGAATAAACCCTCAATATAAATATCTCTCACTTATTTAAA”, the “cleaved RNA product abundance” value by setting is: under setting [2], 0.148; under setting [3], 0.0846; (experiment (reporter, strain, medium): exp 6: tetM reporter, strain 168, cleavage site: cggR-gapA (positions -7 to +36 mutated)) 0.115.

Take “ACAGACGAAGGAGCCGCAAAGAAGTTATTAAGGGATCAATAATCCCTCACTATAAATATCTCTCACTTATTTAAA”: the “cleaved RNA product abundance” value under setting [3] was 0.224.

On to “CGACATGTCCCGCTTCTTTCATTAATCCGTTAGCAACTATTTTGCTATATACACTTACCTTTTAAGAGGAGGAAT”, for which, under setting [1], the “cleaved RNA product abundance” value is 1.29.

Turning to “ACAGACGAAGGAGCCGCTAAAAAGTTATTAAGGGATGAATAATCCCTCAATATAAATATCTCTCACTTATTTAAA”, the “cleaved RNA product abundance” value under setting [3] is 1.1.

“ACAGACGAAGGAGCCGCAAAGAAGTTATTAATGGATGAATAATCCCTCAAGATAAATATCTCTCACTTATTTAAA”: the “cleaved RNA product abundance” value is, setting by setting: under setting [2], 0.0884; under setting [3], 0.0994.

On to “ACAGACGAAGGAGCCGCAAAGAGGTTATTAAGGGATGAATAATCACTCAATATAAATATCTCTCACTTATTTAAA”, for which the “cleaved RNA product abundance” value under setting [3] amounted to 0.102.

Turning to “CGACATGTCCCGCTTCTTTCATTAATCCGTTAGCAACTGTTTTTCTATAAACATTTACCTTTTAAGAGGAGGAAT”, the “cleaved RNA product abundance” value under setting [1] worked out at 0.459.

In the case of “ACAGACGAAGGAGCCGCAAAGAAGTTATTAAGGTATGAAAAATCCCTCAATATAAATATCTCTCACTTATTTAAA”, the “cleaved RNA product abundance” value is, setting by setting: under setting [2], 0.0949; under setting [3], 0.145.

For “ACAGACGAAGGAGCCGCAAAGAAGTTATTAAGAGATGAATAATCCCTCAAGATAAATATCTCTCACTTATTTAAA”, the “cleaved RNA product abundance” value under setting [3] is 0.112.

Regarding “CGACATGTCCCGCTTCTTTCATTAATCCGTTAGTAACTGTTTTGCGATATACATTTACCTTTTAAGAGGAGGAAT”, the “cleaved RNA product abundance” value under setting [1] worked out at 0.29.

As for “ACAGACGAAGGAGCCGCAAAGAAGTTATTAAGGGATGAATAATACCTCAATTTAAATATCTCTCACTTATTTAAA”, the “cleaved RNA product abundance” value came to 0.0845 under setting [2] and 0.0904 under setting [3].

Take “ACAGACGAAGGAGCCGCAAAGAAGTTATTAAGGGATGAATCATCCATCAATATAAATATCTCTCACTTATTTAAA”: under setting [3], the “cleaved RNA product abundance” value came to 0.219.

Values taken from the supplement of paper PMC11780869.
